# Source: publication PMC8561282 (Haematologica, 2021)
# B1: recombinantly expressed band 3 (AE1) peptide, residues 1-56 (domain or fragment)
# chain: MEELQDDYEDMMEENLEQEEYEDPDIPESQMEEPAAHDTEATATDYHTTSHPGTHK
# B2: recombinantly expressed AE1 peptide spanning residues 1-30 (domain or fragment)
# chain: MEELQDDYEDMMEENLEQEEYEDPDIPESQ
# Biological target: recombinant glyceraldehyde 3-phosphate dehydrogenase (GAPDH) tetramer (UniProt P04406 1-335)
# Experiment: ITC
# Sequence of recombinant glyceraldehyde 3-phosphate dehydrogenase (GAPDH) tetramer (P04406 whole entry): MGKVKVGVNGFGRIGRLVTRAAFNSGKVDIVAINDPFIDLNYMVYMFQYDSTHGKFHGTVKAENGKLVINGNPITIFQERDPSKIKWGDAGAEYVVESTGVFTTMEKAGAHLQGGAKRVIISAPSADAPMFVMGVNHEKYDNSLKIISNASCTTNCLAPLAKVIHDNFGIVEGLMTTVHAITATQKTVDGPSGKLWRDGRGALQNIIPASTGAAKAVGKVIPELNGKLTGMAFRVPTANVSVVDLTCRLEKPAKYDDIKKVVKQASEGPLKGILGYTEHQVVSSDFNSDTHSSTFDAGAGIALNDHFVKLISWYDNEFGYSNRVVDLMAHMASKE
binder,measurement,value
B1,Kd,2.56 mM
B2,Kd,44.8 mM
